# Results published in US20240150440A1 (LUMEN BIOSCIENCE, published 2024).
# Read-outs that look alike come from different tables or passages of the source.
# Assays:
# [1] = target: SARS-COV-2 Wuhan Reference RBD (SARS-CoV-2, UniProt P0DTC2 319-541)
# [2] = target: T1, recombinant SARS-CoV-2 RBD with C-terminal AviTag (SARS-CoV-2, UniProt P0DTC2 319-541); assay: BLI, biotinylated RBD on streptavidin biosensors; OR: over-range [Cont. 6]
# [3] = target: T1, recombinant SARS-CoV-2 RBD with …; assay: BLI, biotinylated RBD on streptavidin biosensors; OR: over-range [Cont. 7]
# [4] = target: T1, recombinant SARS-CoV-2 RBD with …; assay: BLI, biotinylated RBD on streptavidin biosensors; OR: over-range
# [5] = target: T1, recombinant SARS-CoV-2 RBD with …
binder,measurement,setting,value
"PP788 (VHH, not shown: large carriers; small tags and cut ends) VHH: QVQLVESGGGLVQPGGSLRLSCAASGSIESINAIHWFRQAPGKAREEVAAITENDVDYYADSVKGRFTISRDNAKNTVYLQMNSLKPEDTAVYYCASLSSGYQYVGFRYWGQGTQVTVSS",EC50,[1],0.00156 µM
"PP887 MBP-S1b-E7-H6 (VHH, Form: Monomer) VHH: QVQLVESGGGLVQPGGSLRLSCAASGGEFSDNGLHWFRQAPGKQREFVATASSDGSTQYRDSVKGRFTISRDNAKNTVYLQMNSLKPEDTAVYYCTALLMSSAGEYDVWGQGTQVTVSS",Kd,[2],~6.57 µM
"PP888 MBP-S1b-E11-H6 (VHH, Form: Monomer) VHH: QVQLVESGGGLVQPGGSLRLSCAASGSYASIASMHWFRQAPGKEREFVAGVTSGGSTNYGDSVKGRFTISRDNAKNTVYLQMNSLKPEDTAVYYCNALAGANYESQWEEYNYWGQGTQVTVSS",Kd,[3],~5.29 µM
"PP806 MBP-R2B-E6-H6 (VHH, Form: Monomer) VHH: QVQLVESGGGLVQPGGSLRLSCAASGGVTRGNAMAWYRQAPGKQREIVAAIDNGGSHAYGDSVKGRFTISRDNAKNTVYLQMNSLKPEDTAVYYCAVFPDHDSEQASIDRVYWGQGTQVTVSS",Kd,[4],~1.4 µM
"MBP-5HVZ-R5d-E1-H6 (VHH, not shown: large carriers; small tags and cut ends) VHH: QVQLVESGGGLVQPGGSLRLSCAASGSSFSINWMHWFRQAPGKQREGVASINSTGSDYYADSVKGRFTISRDNAKNTVYLQMNSLKPEDTAVYYCAAAITQPMPQGKGAPPGFYYWGQGTQVTVSS",Kd,[5],0.00798 µM
